According to article PMC2886353 (The Journal of Cell Biology, 2010):

B1: KIF17 (1-738)-3xmCit (domain or fragment, human, UniProt Q9P2E2-1 1-738, looked up)
chain: MASEAVKVVVRCRPMNQRERELRCQPVVTVDCARAQCCIQNPGAADEPPKQFTFDGAYHVDHVTEQIYNEIAYPLVEGVTEGYNGTIFAYGQTGSGKSFTMQGLPDPPSQRGIIPRAFEHVFESVQCAENTKFLVRASYLEIYNEDVRDLLGADTKQKLELKEHPEKGVYVKGLSMHTVHSVAQCEHIMETGWKNRSVGYTLMNKDSSRSHSIFTISIEMSAVDERGKDHLRAGKLNLVDLAGSERQSKTGATGERLKEATKINLSLSALGNVISALVDGRCKHVPYRDSKLTRLLQDSLGGNTKTLMVACLSPADNNYDETLSTLRYANRAKNIRNKPRINEDPKDALLREYQEEIKKLKAILTQQMSPSSLSALLSRQVPPDPVQVEEKLLPQPVIQHDVEAEKQLIREEYEERLARLKADYKAEQESRARLEEDITAMRNSYDVRLSTLEENLRKETEAVLQVGVLYKAEVMSRAEFASSAEYPPAFQYETVVKPKVFSTTDTLPSDDVSKTQVSSRFAELPKVEPSKSEISLGSSESSSLEETSVSEAFPGPEEPSNVEVSMPTEESRSRYFLDECLGQEAAGHLLGEQNYLPQEEPQEVPLQGLLGLQDPFAEVEAKLARLSSTVARTDAPQADVPKVPVQVPAPTDLLEPSDARPEAEAADDFPPRPEVDLASEVALEVVRTAEPGVWLEAQAPVALVAQPEPLPATAGVKRESVGMEVAVLTDDPLPVVDQ
B2: KIF17 (1-795)-3xmCit (domain or fragment, human, UniProt Q9P2E2-1 1-795, looked up)
chain: MASEAVKVVVRCRPMNQRERELRCQPVVTVDCARAQCCIQNPGAADEPPKQFTFDGAYHVDHVTEQIYNEIAYPLVEGVTEGYNGTIFAYGQTGSGKSFTMQGLPDPPSQRGIIPRAFEHVFESVQCAENTKFLVRASYLEIYNEDVRDLLGADTKQKLELKEHPEKGVYVKGLSMHTVHSVAQCEHIMETGWKNRSVGYTLMNKDSSRSHSIFTISIEMSAVDERGKDHLRAGKLNLVDLAGSERQSKTGATGERLKEATKINLSLSALGNVISALVDGRCKHVPYRDSKLTRLLQDSLGGNTKTLMVACLSPADNNYDETLSTLRYANRAKNIRNKPRINEDPKDALLREYQEEIKKLKAILTQQMSPSSLSALLSRQVPPDPVQVEEKLLPQPVIQHDVEAEKQLIREEYEERLARLKADYKAEQESRARLEEDITAMRNSYDVRLSTLEENLRKETEAVLQVGVLYKAEVMSRAEFASSAEYPPAFQYETVVKPKVFSTTDTLPSDDVSKTQVSSRFAELPKVEPSKSEISLGSSESSSLEETSVSEAFPGPEEPSNVEVSMPTEESRSRYFLDECLGQEAAGHLLGEQNYLPQEEPQEVPLQGLLGLQDPFAEVEAKLARLSSTVARTDAPQADVPKVPVQVPAPTDLLEPSDARPEAEAADDFPPRPEVDLASEVALEVVRTAEPGVWLEAQAPVALVAQPEPLPATAGVKRESVGMEVAVLTDDPLPVVDQQQVLARLQLLEQQVVGGEQAKNKDLKEKHKRRKRYADERRKQLVAALQNSDEDSGDW
B3: KIF17 (1-369)-3xmCit (domain or fragment, human, UniProt Q9P2E2-1 1-369, looked up)
chain: MASEAVKVVVRCRPMNQRERELRCQPVVTVDCARAQCCIQNPGAADEPPKQFTFDGAYHVDHVTEQIYNEIAYPLVEGVTEGYNGTIFAYGQTGSGKSFTMQGLPDPPSQRGIIPRAFEHVFESVQCAENTKFLVRASYLEIYNEDVRDLLGADTKQKLELKEHPEKGVYVKGLSMHTVHSVAQCEHIMETGWKNRSVGYTLMNKDSSRSHSIFTISIEMSAVDERGKDHLRAGKLNLVDLAGSERQSKTGATGERLKEATKINLSLSALGNVISALVDGRCKHVPYRDSKLTRLLQDSLGGNTKTLMVACLSPADNNYDETLSTLRYANRAKNIRNKPRINEDPKDALLREYQEEIKKLKAILTQQMS
B4: KIF17 (1-846)-3xmCit (domain or fragment, human, UniProt Q9P2E2-1 1-846, looked up)
chain: MASEAVKVVVRCRPMNQRERELRCQPVVTVDCARAQCCIQNPGAADEPPKQFTFDGAYHVDHVTEQIYNEIAYPLVEGVTEGYNGTIFAYGQTGSGKSFTMQGLPDPPSQRGIIPRAFEHVFESVQCAENTKFLVRASYLEIYNEDVRDLLGADTKQKLELKEHPEKGVYVKGLSMHTVHSVAQCEHIMETGWKNRSVGYTLMNKDSSRSHSIFTISIEMSAVDERGKDHLRAGKLNLVDLAGSERQSKTGATGERLKEATKINLSLSALGNVISALVDGRCKHVPYRDSKLTRLLQDSLGGNTKTLMVACLSPADNNYDETLSTLRYANRAKNIRNKPRINEDPKDALLREYQEEIKKLKAILTQQMSPSSLSALLSRQVPPDPVQVEEKLLPQPVIQHDVEAEKQLIREEYEERLARLKADYKAEQESRARLEEDITAMRNSYDVRLSTLEENLRKETEAVLQVGVLYKAEVMSRAEFASSAEYPPAFQYETVVKPKVFSTTDTLPSDDVSKTQVSSRFAELPKVEPSKSEISLGSSESSSLEETSVSEAFPGPEEPSNVEVSMPTEESRSRYFLDECLGQEAAGHLLGEQNYLPQEEPQEVPLQGLLGLQDPFAEVEAKLARLSSTVARTDAPQADVPKVPVQVPAPTDLLEPSDARPEAEAADDFPPRPEVDLASEVALEVVRTAEPGVWLEAQAPVALVAQPEPLPATAGVKRESVGMEVAVLTDDPLPVVDQQQVLARLQLLEQQVVGGEQAKNKDLKEKHKRRKRYADERRKQLVAALQNSDEDSGDWVLLNVYDSIQEEVRAKSKLLEKMQRKLRAAEVEIKDLQSEFQLEKIDYLAT
B5: KIF17 (1-490)-3xmCit (domain or fragment, human, UniProt Q9P2E2-1 1-490, looked up)
chain: MASEAVKVVVRCRPMNQRERELRCQPVVTVDCARAQCCIQNPGAADEPPKQFTFDGAYHVDHVTEQIYNEIAYPLVEGVTEGYNGTIFAYGQTGSGKSFTMQGLPDPPSQRGIIPRAFEHVFESVQCAENTKFLVRASYLEIYNEDVRDLLGADTKQKLELKEHPEKGVYVKGLSMHTVHSVAQCEHIMETGWKNRSVGYTLMNKDSSRSHSIFTISIEMSAVDERGKDHLRAGKLNLVDLAGSERQSKTGATGERLKEATKINLSLSALGNVISALVDGRCKHVPYRDSKLTRLLQDSLGGNTKTLMVACLSPADNNYDETLSTLRYANRAKNIRNKPRINEDPKDALLREYQEEIKKLKAILTQQMSPSSLSALLSRQVPPDPVQVEEKLLPQPVIQHDVEAEKQLIREEYEERLARLKADYKAEQESRARLEEDITAMRNSYDVRLSTLEENLRKETEAVLQVGVLYKAEVMSRAEFASSAEYPPAF

Target: the molecule itself
Assay: single-molecule step-wise photobleaching

Stoichiometry N, 2:
B1
B2
B3
B4
B5
